From US20110002929A1 (Ablynx, published 2011)

T1: human RANK-L (human, UniProt O14788 140-317, limits assumed)
T1 construct: Soluble protein, used coated, biotinylated or labelled in ELISA, AlphaScreen, FMAT and Biacore; also called hRANK-L; soluble human RANK-L
T1 sequence (looked up): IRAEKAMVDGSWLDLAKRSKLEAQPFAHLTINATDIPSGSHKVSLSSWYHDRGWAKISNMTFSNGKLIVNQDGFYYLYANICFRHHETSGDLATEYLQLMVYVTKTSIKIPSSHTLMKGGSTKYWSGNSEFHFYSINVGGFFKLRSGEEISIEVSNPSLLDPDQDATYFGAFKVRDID

T2: mouse RANK-L (mouse, UniProt O35235 158-316, limits assumed)
T2 construct: also called murine RANK-L
T2 sequence (looked up): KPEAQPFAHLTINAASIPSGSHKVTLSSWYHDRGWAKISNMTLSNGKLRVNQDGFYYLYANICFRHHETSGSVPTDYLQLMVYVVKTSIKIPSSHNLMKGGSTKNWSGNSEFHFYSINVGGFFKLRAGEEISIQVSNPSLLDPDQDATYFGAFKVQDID


How the values were obtained:
human RANK-L [1] = molecular target: T1, human RANK-L; test: ELISA (ED50), biotin-hRANK-L on neutravidin
Procedure: (§1) Therefore 2 μg/ml neutravidin was coated overnight at 4° C. The plates were washed 5 times with 300 μl PBS and then blocked with […] 1% casein/PBS for 2 hours at room temperature. […] After extensive washing with PBS, varying concentrations of Nanobodies starting from 500 nM to 160 pM diluted in 1% casein/PBS were added to the wells and the plates were incubated for 1 hour at room temperature. Bound Nanobodies were detected by subsequent incubations of a primary mouse anti-myc antibody and a secondary anti mouse-HRP conjugate (DAKO, Glostrup, Denmark) and using TMB-H2O2 (Pierce, Rockford, Ill., USA) substrate cocktail. The reaction was stopped with H₂SO₄ and the OD was read at 450 nm.

mouse RANK-L = molecular target: T2, mouse RANK-L; test: ELISA, set-up as for human RANK-L
Procedure: as §1

human RANK-L [2] = molecular target: T1, human RANK-L; test: AlphaScreen, biotin-hRANK-L / RANK-huFc beads
Procedure: To this mixture, the RANK acceptor beads and the streptavidin donor beads were added and further incubated for 1 hour at room temperature. Fluorescence was measured by reading plates on the EnVision Multilabel Plate Reader (Perkin Elmer) using an excitation wavelength of 680 nm and an emission wavelength of 520 nm.

human RANK-L [3] = molecular target: T1, human RANK-L; test: AlphaScreen, biotin-hRANK-L / RANK-huFc beads; remark: listed apart in the source
human RANK-L [4] = molecular target: T1, human RANK-L; test: FMAT, ALEXA647-hRANK-L / RANK on HEK293T cells
human RANK-L [5] = molecular target: T1, human RANK-L; test: AlphaScreen, biotin-hRANK-L / RANK-huFc beads; remark: listed apart in the source
human RANK-L [6] = molecular target: T1, human RANK-L; test: SPR Biacore 3000, hRANK-L on CM5, 100 nM Nanobody
Procedure: (§2) Binding kinetics of the humanized versions of Nanobodu RANL13 were also analysed by Surface Plasmon Resonance (Biacore 3000). […] Nanobody binding was assessed at one concentration (100 nM). Each Nanobody was injected for 4 minutes at a flow rate of 45 μl/min to allow binding to chip-bound antigen. Next, binding buffer without Nanobody was sent over the chip at the same flow rate to allow spontaneous dissociation of bound Nanobody.

human RANK-L [7] = molecular target: T1, human RANK-L; test: SPR Biacore 3000, hRANK-L on CM5, 100 nM Nanobody; only indicative (one concentration)
Procedure: as §2

Binder | EC50 (human RANK-L [1]) | binding result (mouse RANK-L) | IC50 (human RANK-L [2]) | IC50 (human RANK-L [3]) | IC50 (human RANK-L [4]) | IC50 (human RANK-L [5]) | koff (human RANK-L [6]) | Kd (human RANK-L [7]) | kon (human RANK-L [7])
RANKL7 (VHH, not shown: c-myc and His6 tags) VHH: EVQLVESEGGPVQSGGSLRLSCAASGRTFSVSTIAWFRQAPGEGREFVAAIYPSGRNAYVADSVKGRFTISRDNAKKTVYLQMNSLKPEDTAAYYCAAHQPSGSYYSAEAYAYWGQGTQVTVSS | 0.376 nM | no binding (tested: 500 nM to 160 pM) | 0.459 nM |  |  |  |  |  | 
RANKL131 (VHH, Bivalent Nanobody; also called RANKL13-9GS-RANKL13) EVQLVESGGGLVQAGGSLRLSCAASGRTFRSYPMGWFRQAPGKEREFVASITGSGGSTYYADSVKGRFTISRDNAKNTVYLQMNSLRPEDTAVYSCAAYIRPDTYLSRDYRKYDYWGQGTQVTVSSGGGGSGGGSEVQLVESGGGLVQAGGSLRLSCAASGRTFRSYPMGWFRQAPGKEREFVASITGSGGSTYYADSVKGRFTISRDNAKNTVYLQMNSLRPEDTAVYSCAAYIRPDTYLSRDYRKYDYWGQGTQVTVSS |  |  |  | 0.019 nM | 0.023 nM |  |  |  | 
RANKL182biv (VHH, Bivalent Nanobody; also called RANKL18-20GS-RANKL18) EVQLVESGGGLVQAGGSLRLSCAASGRTFSRSAMGWFRQAPGKEREFVGFITGSGGTTYYGESVKGRFTISRDNAQNPVYLQMNSLKPEDTAVYYCGVYRRTYISSTYSESSEYDYWGQGTQVTVSSGGGGSGGGGSGGGGSGGGGSEVQLVESGGGLVQAGGSLRLSCAASGRTFSRSAMGWFRQAPGKEREFVGFITGSGGTTYYGESVKGRFTISRDNAQNPVYLQMNSLKPEDTAVYYCGVYRRTYISSTYSESSEYDYWGQGTQVTVSS |  |  |  | 0.089 nM | 0.076 nM |  |  |  | 
RANKL8 (VHH, not shown: c-myc and His6 tags) VHH: EVQLVESGGGSVQPGGSLRLSCAASGGTFSRYAMGWFRQAPGKEREFVSAISVGGTYQYYVDSVKGRFTISRDNAESTVYLQMNSLKPEDTAVYYCAGDASPYGYLREYTATRFDYWGQGTQVTVSS | 0.652 nM | no binding (tested: 500 nM to 160 pM) | 0.755 nM |  |  |  |  |  | 
RANKL181biv (VHH, Bivalent Nanobody; also called RANKL18-9GS-RANKL18) EVQLVESGGGLVQAGGSLRLSCAASGRTFSRSAMGWFRQAPGKEREFVGFITGSGGTTYYGESVKGRFTISRDNAQNPVYLQMNSLKPEDTAVYYCGVYRRTYISSTYSESSEYDYWGQGTQVTVSSGGGGSGGGSEVQLVESGGGLVQAGGSLRLSCAASGRTFSRSAMGWFRQAPGKEREFVGFITGSGGTTYYGESVKGRFTISRDNAQNPVYLQMNSLKPEDTAVYYCGVYRRTYISSTYSESSEYDYWGQGTQVTVSS |  |  |  | 0.113 nM | 0.134 nM |  |  |  | 
RANKL18hum1 (VHH, name in Kabat numbering) VHH: EVQLVESGGGLVQPGGSLRLSCAASGFTFSRSAMGWFRQAPGKGREFVGFITGSGGTTYYGESVKGRFTISRDNAQNPVYLQMNSLRPEDTAVYYCGVYRRTYISSTYSESSEYDYWGQGTLVTVSS |  |  |  |  |  | 3.15 nM | 0.000236 s⁻¹ | 1.56 nM | 151000 M⁻¹ s⁻¹
RANKL18hum2 (VHH, name in Kabat numbering) VHH: EVQLVESGGGLVQPGGSLRLSCAASGRTFSRSAMGWFRQAPGKGREFVSFITGSGGTTYYGESVKGRFTISRDNAQNPVYLQMNSLRPEDTAVYYCGVYRRTYISSTYSESSEYDYWGQGTLVTVSS |  |  |  |  |  | 3.19 nM | 0.000173 s⁻¹ | 2.73 nM | 63400 M⁻¹ s⁻¹
RANKL18hum7 (VHH) VHH: EVQLVESGGGLVQPGGSLRLSCAASGRTFSRSAMGWFRQAPGKGREFVGFITGSGGTTYYADSVKGRFTISRDNAQNPLYLQMNSLRPEDTAVYYCAVYRRTYISSTYSESSEYDYWGQGTLVTVSS |  |  |  |  |  | 0.572 nM | 0.00027 s⁻¹ | 1.5 nM | 
RANKL18hum5 (VHH) VHH: EVQLVESGGGLVQPGGSLRLSCAASGRTFSRSAMGWFRQAPGKGREFVGFITGSGGTTYYGESVKGRFTISRDNAQNPVYLQMNSLRPEDTAVYYCAVYRRTYISSTYSESSEYDYWGQGTLVTVSS |  |  |  |  |  | 0.253 nM | 9.94e-05 s⁻¹ | 0.232 nM | 429000 M⁻¹ s⁻¹
RANKL133 (VHH, Bivalent Nanobody; also called RANKL13-30GS-RANKL13) EVQLVESGGGLVQAGGSLRLSCAASGRTFRSYPMGWFRQAPGKEREFVASITGSGGSTYYADSVKGRFTISRDNAKNTVYLQMNSLRPEDTAVYSCAAYIRPDTYLSRDYRKYDYWGQGTQVTVSSGGGGSGGGGSGGGGSGGGGSGGGGSGGGGSEVQLVESGGGLVQAGGSLRLSCAASGRTFRSYPMGWFRQAPGKEREFVASITGSGGSTYYADSVKGRFTISRDNAKNTVYLQMNSLRPEDTAVYSCAAYIRPDTYLSRDYRKYDYWGQGTQVTVS |  |  |  | 0.026 nM |  |  |  |  | 
RANKL11 (VHH, not shown: c-myc and His6 tags) VHH: EVQLVESGGGLVQAGGSLRLSCAASGRTFSSKTMGWFRQPPGNEREFVAAITPTSRTTYYADSVKGRFTISRDNAKNTVSLQMNSLKFEDTAAYYCVAVRRYGSPPHDGSSYEYWGQGTQVTVSS | 0.517 nM | no binding (tested: 500 nM to 160 pM) | 1.17 nM |  |  |  |  |  | 
RANKL13basic (VHH, Humanized variant of RANKL13; also called RANKL13humbasic) VHH: EVQLVESGGGLVQPGGSLRLSCAASGRTFRSYPMGWFRQAPGKGREFVASITGSGGSTYYADSVKGRFTISRDNAKNTLYLQMNSLRPEDTAVYSCAAYIRPDTYLSRDYRKYDYWGQGTLVTVSS |  |  |  |  |  | 0.159 nM | 0.000189 s⁻¹ | 0.214 nM | 885000 M⁻¹ s⁻¹
RANKL13hum4 (VHH, name in Kabat numbering) VHH: EVQLVESGGGLVQPGGSLRLSCAASGRTFRSYPMGWFRQAPGKGREFVASITGSGGSTYYADSVKGRFTISRDNAKNTLYLQMNSLRPEDTAVYYCAAYIRPDTYLSRDYRKYDYWGQGTLVTVSS |  |  |  |  |  | 0.223 nM | 0.000204 s⁻¹ | 0.538 nM | 379000 M⁻¹ s⁻¹
RANKL13hum2 (VHH, name in Kabat numbering) VHH: EVQLVESGGGLVQPGGSLRLSCAASGRTFSSYPMGWFRQAPGKGREFVASITGSGGSTYYADSVKGRFTISRDNAKNTLYLQMNSLRPEDTAVYSCAAYIRPDTYLSRDYRKYDYWGQGTLVTVSS |  |  |  |  |  | 0.191 nM | 0.000232 s⁻¹ | 0.88 nM | 264000 M⁻¹ s⁻¹
RANKL13hum1 (VHH) VHH: EVQLVESGGGLVQPGGSLRLSCAASGFTFRSYPMGWFRQAPGKGREFVASITGSGGSTYYADSVKGRFTISRDNAKNTLYLQMNSLRPEDTAVYSCAAYIRPDTYLSRDYRKYDYWGQGTLVTVSS |  |  |  |  |  | 0.123 nM | 0.000145 s⁻¹ | 0.106 nM | 1.37e+06 M⁻¹ s⁻¹
RANKL13hum3 (VHH, name in Kabat numbering, also called RANL13hum3) VHH: EVQLVESGGGLVQPGGSLRLSCAASGRTFRSYPMGWFRQAPGKGREFVSSITGSGGSTYYADSVKGRFTISRDNAKNTLYLQMNSLRPEDTAVYSCAAYIRPDTYLSRDYRKYDYWGQGTLVTVSS |  |  |  |  |  | 0.196 nM | 0.000174 s⁻¹ | 0.264 nM | 659000 M⁻¹ s⁻¹
RANKL12 (VHH, not shown: c-myc and His6 tags) VHH: EVQLVESGGGWMQAGGSLRLSCAASGRTFTMAWFRQAPGKEREFVAAITGSGRSTYYTDSVKGRFTISRDNAKNTAYLQMKSLKPEDTAVYYCAGLRGLGLEYDSAKSYSYWGQGTQVTVSS | 0.399 nM | no binding (tested: 500 nM to 160 pM) | 0.627 nM |  |  |  |  |  | 
